# Values joined by “and” are separate entries in the source; they are usually repeats but may differ in a detail not shown here. Equal entries are not always repeated. Positions of bridges follow the written chain, without caps; N, C: chain ends. Residues, ends and D or L forms follow the SMILES beside them. *: point of attachment. DOTA = O=C(O)CN1CCN(CC(=O)O)CCN(CC(=O)*)CCN(CC(=O)O)CC1
# Experiments:
# [1] = tested on: tumours; details: human, in vivo
# Description: The radiolabelling procedure used was as follows.
# (§1) Pre-therapeutic positron emission tomography/computed tomography (PET/CT) imaging was carried out 1 hour and 3 hours post injection with the imaging agent. […] Patient 1 was then administered with the therapeutic agent. […] single-photon emission computed tomography (SPECT) imaging was then carried out 1.5 hours, 17 hours, 41 hours, 65 hours and 141 hours post injection with the therapeutic agent.
# (§2) Patient 2 was then administered with the therapeutic agent. […] SPECT imaging was then carried out 4.5 hours, 20 hours, 45 hours, 67 hours and 141 hours post injection with the therapeutic agent.
# (§3) PET/CT imaging was performed using a Siemens Biograph mCT Flow PET/CT. SPECT imaging was performed using a Siemens Intevo SPECT/CT.
# [2] = clinical; details: for accumulation and retention in tumours (SPECT): up to 141 hours post injection
# Description: A dosimetry study was carried out using Compound 3 to investigate the suitability of the compounds described herein for use in imaging and radiotherapy.
# The radiolabelling procedure used was as follows. Compound 3 was dissolved in ultrapure water (2 μg/μl) and 1.5 mL of 0.4 M sodium acetate buffer at pH 4.8 (8 mg/mL). Gentisic acid was added and the mixture was transferred to a ^177Lu V-vial. The vial was heated for 25 minutes at 95° C.
# as §1, §2, §3
# [3] = target: cMet receptor (Homo sapiens, UniProt P08581); experiment: Competition binding assay by fluorescence polarisation (FP); details: mean; competition FP vs Cy5-labelled probe 20 nM, cMet receptor 50 nM, PBS pH 7.4 with 0.01% Tween 20
# Description: The half maximal inhibitory concentration (IC50) and dissociation constant (Kd) values were determined by competition fluorescence polarisation (FP) assay for the binding of cMet binding cyclic peptide (unlabelled), cMet-DOTA (Compound 3) and cMet-DOTAGA (Compound 4) to cMet receptor.
# The principle of the fluorescence polarisation method can briefly be described as follows:
# Monochromatic light passes through a […] polarizing filter and excites fluorescent molecules in the sample. Only those molecules that are oriented properly in the vertically polarized plane adsorb light, become excited, and subsequently emit light. The emitted light is measured in both horizontal and vertical planes. The anisotropy value (A), is the ratio between the light intensities following the equation:
# A=(Intensity with horizontal polarizer—Intensity with vertical polarizer)/(Intensity with horizontal polarizer+2* Intensity with vertical polarizer).
# The fluorescence anisotropy measurements were performed in a 96-well flat bottom plate using a Molecular Devices M5 multi-mode plate reader.
# The assay buffer used was phosphate-buffered saline (PBS), pH 7.4 with 0.01% Tween 20. […]
# IC50 values were determined by data fitting with the following equation using KaleidaGraph v4.03: […]
# Kd values were determined by data fitting with the following equation using KaleidaGraph v4.03: […]
# [4] = patient 1, 835 MBq, tumours (individual clusters)
# [5] = patient 2, 959 MBq, tumours (individual VOIs)
# Chain of cMet receptor (P08581 25-932 limits assumed): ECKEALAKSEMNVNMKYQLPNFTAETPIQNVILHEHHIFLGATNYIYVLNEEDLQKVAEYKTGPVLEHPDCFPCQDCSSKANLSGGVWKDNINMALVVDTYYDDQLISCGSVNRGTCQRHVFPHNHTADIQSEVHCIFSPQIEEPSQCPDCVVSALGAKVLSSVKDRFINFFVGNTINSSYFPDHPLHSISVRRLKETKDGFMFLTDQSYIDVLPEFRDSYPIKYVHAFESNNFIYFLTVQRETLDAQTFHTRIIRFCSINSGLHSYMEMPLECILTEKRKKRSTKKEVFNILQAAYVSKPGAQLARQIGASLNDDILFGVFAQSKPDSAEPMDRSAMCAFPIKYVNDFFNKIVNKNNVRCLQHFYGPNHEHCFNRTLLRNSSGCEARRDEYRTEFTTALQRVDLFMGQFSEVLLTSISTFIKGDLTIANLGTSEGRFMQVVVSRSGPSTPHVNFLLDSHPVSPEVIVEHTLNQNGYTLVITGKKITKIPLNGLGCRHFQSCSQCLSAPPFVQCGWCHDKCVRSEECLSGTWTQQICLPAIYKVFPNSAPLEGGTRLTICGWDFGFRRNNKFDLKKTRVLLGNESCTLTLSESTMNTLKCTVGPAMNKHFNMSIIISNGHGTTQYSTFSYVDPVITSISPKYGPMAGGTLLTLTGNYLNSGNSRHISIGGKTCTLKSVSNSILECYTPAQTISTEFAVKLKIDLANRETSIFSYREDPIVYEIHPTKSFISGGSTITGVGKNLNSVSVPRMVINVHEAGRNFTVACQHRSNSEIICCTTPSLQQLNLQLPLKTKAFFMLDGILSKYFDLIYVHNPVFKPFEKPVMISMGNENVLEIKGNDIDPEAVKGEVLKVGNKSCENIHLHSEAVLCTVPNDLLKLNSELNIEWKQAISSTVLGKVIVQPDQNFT
compound,measurement,setting,value
"CC(=O)N[C@@H](C)C(=O)NCC(=O)N[C@@H](CO)C(=O)N[C@H]1CSSC[C@@H](C(=O)N[C@@H](Cc2ccc(O)cc2)C(=O)N[C@@H](CCC(=O)O)C(=O)N[C@H](C(=O)N[C@@H](CCC(=O)O)C(=O)NCC(=O)N[C@H](C(=O)NCC(=O)NCC(=O)NCC(=O)N[C@@H](CCCCNC(=O)CN2CCN(CC(=O)O)CCN(CC(=O)O)CCN(CC(=O)O)CC2)C(N)=O)[C@@H](C)O)[C@@H](C)O)NC(=O)[C@H](Cc2c[nH]c3ccccc23)NC(=O)[C@@H]2CSSC[C@H](NC(=O)[C@H](Cc3ccc(O)cc3)NC1=O)C(=O)N[C@@H](CO)C(=O)NCC(=O)N1CCC[C@H]1C(=O)N1CCC[C@H]1C(=O)N[C@@H](CCCNC(=N)N)C(=O)N[C@@H](Cc1ccccc1)C(=O)N[C@@H](CCC(=O)O)C(=O)N2 [^68Ga-Compound 3, metal not drawn] (Ac-AGSCYCSGPPRFECWCYETEGTGGGK(DOTA)-NH2; disulfide 4-16, 6-14)",accumulation in tumours (PET/CT),[1],accumulation
"CC(=O)N[C@@H](C)C(=O)NCC(=O)N[C@@H](CO)C(=O)N[C@H]1CSSC[C@@H](C(=O)N[C@@H](Cc2ccc(O)cc2)C(=O)N[C@@H](CCC(=O)O)C(=O)N[C@H](C(=O)N[C@@H](CCC(=O)O)C(=O)NCC(=O)N[C@H](C(=O)NCC(=O)NCC(=O)NCC(=O)N[C@@H](CCCCNC(=O)CN2CCN(CC(=O)O)CCN(CC(=O)O)CCN(CC(=O)O)CC2)C(N)=O)[C@@H](C)O)[C@@H](C)O)NC(=O)[C@H](Cc2c[nH]c3ccccc23)NC(=O)[C@@H]2CSSC[C@H](NC(=O)[C@H](Cc3ccc(O)cc3)NC1=O)C(=O)N[C@@H](CO)C(=O)NCC(=O)N1CCC[C@H]1C(=O)N1CCC[C@H]1C(=O)N[C@@H](CCCNC(=N)N)C(=O)N[C@@H](Cc1ccccc1)C(=O)N[C@@H](CCC(=O)O)C(=O)N2 [^177Lu-Compound 3, metal not drawn] (Ac-AGSCYCSGPPRFECWCYETEGTGGGK(DOTA)-NH2; disulfide 4-16, 6-14)",half-life,"[2]; human, kidney (left), Half-life, patient 2, 959 MBq",37 h
same,half-life,"[2]; human, kidney (left), Halflife, patient 1, 835 MBq",21 h
same,half-life,"[2]; human, kidney (right), Half-life, patient 2, 959 MBq",40 h
same,half-life,"[2]; human, kidney (right), Halflife, patient 1, 835 MBq",21 h
same,half-life,"[2]; human, liver, Half-life, patient 2, 959 MBq",77 h
same,half-life,"[2]; human, liver, Halflife, patient 1, 835 MBq",73 h
same,half-life,"[2]; human, spleen, Half-life, patient 2, 959 MBq",58 h
same,half-life,"[2]; human, spleen, Halflife, patient 1, 835 MBq",39 h
same,half-life,"[2]; human, tumours (individual VOIs), Half-life, patient 2, 959 MBq",28 h
same,half-life,"[2]; human, tumours (individual clusters), Halflife, patient 1, 835 MBq",42 h
same,Dose,"[2]; patient 1, 835 MBq, kidney (left)",1.04 Gy
same,Dose,"[2]; patient 1, 835 MBq, kidney (right)",1.02 Gy
same,Dose,[2]; [4],0.4 Gy and 0.43 Gy and 0.36 Gy
same,Halflife,[2]; [4],48 h and 32 h and 59 h
same,accumulation and retention in tumours (SPECT),"[2]; patient 1, 835 MBq",accumulation and retention
same,Dose,"[2]; patient 2, 959 MBq, kidney (left), VOI 2466",1.87 Gy
same,Dose,"[2]; patient 2, 959 MBq, kidney (left), VOI K-l-iso (Isocont.)",1.73 Gy
same,Dose,"[2]; patient 2, 959 MBq, kidney (right), VOI 2548",1.06 Gy
same,Dose,[2]; [5],0.08 Gy and 0.05 Gy and 0.04 Gy
same,half-life,[2]; [5],27 h
same,accumulation and retention in tumours (SPECT),"[2]; patient 2, 959 MBq",accumulation and retention
"CC(=O)N[C@@H](C)C(=O)NCC(=O)N[C@@H](CO)C(=O)N[C@H]1CSSC[C@@H](C(=O)N[C@@H](Cc2ccc(O)cc2)C(=O)N[C@@H](CCC(=O)O)C(=O)N[C@H](C(=O)N[C@@H](CCC(=O)O)C(=O)NCC(=O)N[C@H](C(=O)NCC(=O)NCC(=O)NCC(=O)N[C@@H](CCCCN)C(N)=O)[C@@H](C)O)[C@@H](C)O)NC(=O)[C@H](Cc2c[nH]c3ccccc23)NC(=O)[C@@H]2CSSC[C@H](NC(=O)[C@H](Cc3ccc(O)cc3)NC1=O)C(=O)N[C@@H](CO)C(=O)NCC(=O)N1CCC[C@H]1C(=O)N1CCC[C@H]1C(=O)N[C@@H](CCCNC(=N)N)C(=O)N[C@@H](Cc1ccccc1)C(=O)N[C@@H](CCC(=O)O)C(=O)N2 [cMet peptide (unlabelled)] (HELM PEPTIDE1{[ac].A.G.S.C.Y.C.S.G.P.P.R.F.E.C.W.C.Y.E.T.E.G.T.G.G.G.K.[am]}$PEPTIDE1,PEPTIDE1,5:R3-17:R3|PEPTIDE1,PEPTIDE1,7:R3-15:R3$$$V2.0)",IC50,[3],320 ± 37 nM
same,Kd,[3],6.9 ± 0.8 nM
